Test results from publication PMC7199859 (The Journal of Cell Biology, 2020).

What was measured:
[1] = molecular target: GAS2L1 S352A (Bio-GFP-tagged) (human) (UniProt Q99501); assay: pull-down
[2] = molecular target: GAS2L1 S352D (Bio-GFP-tagged) (human) (UniProt Q99501); assay: pull-down
[3] = molecular target: taxol-stabilized microtubules from porcine brain α/β-tubulin (porcine) (UniProt P02550); assay: co-sedimentation
[4] = molecular target: T1, His6-CH (recombinant GAS2L1 CH domain, His6 tagged) (human, UniProt Q99501 1-196); assay: pull-down
T1 sequence (looked up): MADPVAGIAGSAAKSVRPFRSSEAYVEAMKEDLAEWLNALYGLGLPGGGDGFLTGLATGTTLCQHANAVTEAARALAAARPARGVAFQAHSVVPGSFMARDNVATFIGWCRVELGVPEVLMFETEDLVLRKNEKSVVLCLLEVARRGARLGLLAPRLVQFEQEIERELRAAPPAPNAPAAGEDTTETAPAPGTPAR

Molecule: actin (endogenous, HEK293T; detected with anti-β-actin) (from UniProt P60709 1-375) (natural protein)
- actin-binding activity relative to WT GAS2L1 [1]: 62 % lower
- actin-binding activity relative to WT GAS2L1 [2]: 46 % higher

B1: His6-FLAG-CH-GAR (recombinant GAS2L1 1-300) (domain or fragment)
chain: MADPVAGIAGSAAKSVRPFRSSEAYVEAMKEDLAEWLNALYGLGLPGGGDGFLTGLATGTTLCQHANAVTEAARALAAARPARGVAFQAHSVVPGSFMARDNVATFIGWCRVELGVPEVLMFETEDLVLRKNEKSVVLCLLEVARRGARLGLLAPRLVQFEQEIERELRAAPPAPNAPAAGEDTTETAPAPGTPARGPRMTPSDLRNLDELVREILGRCTCPDQFPMIKVSEGKYRVGDSSLLIFVRVLRSHVMVRVGGGWDTLEHYLDKHDPCRCSSTAHRPPQPRVCTFSPQRVSPTT
- microtubule-binding activity relative to the GAR protein [3]: 47 % lower

B2: His6-FLAG-GAR (recombinant GAS2L1 GAR protein, 197-300) (domain or fragment, human, UniProt Q99501 197-300, looked up)
chain: GPRMTPSDLRNLDELVREILGRCTCPDQFPMIKVSEGKYRVGDSSLLIFVRVLRSHVMVRVGGGWDTLEHYLDKHDPCRCSSTAHRPPQPRVCTFSPQRVSPTT
- binding result [4]: binds
